What was measured:
HeLa Kyoto [1] = assay: solubility in G1/S (NP-40 vs SDS abundance) (log2 ratio); higher = more soluble; settings: cell cycle stage: G1/S
HeLa Kyoto [2] = assay: melting temperature (median over replicates), in situ; higher = more thermally stable
HeLa Kyoto [3] = assay: solubility change mitosis vs G1/S (difference of NP-40 vs SDS log2 ratios) (log2 ratio difference); higher = more soluble in mitosis
HeLa Kyoto [4] = assay: thermal stability score vs G1/S (z-score of summed log2 fold changes over temperatures); higher = more thermally stable than in G1/S
[5] = cell cycle stage: early G1 (4.5 h after nocodazole release)
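Throughout, for melting temperature (median over replicates), in situ: HeLa Kyoto cells synchronized by double thymidine or nocodazole block, proteins quantified by TMT10plex mass spectrometry, three independent biological replicates.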
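Throughout, for solubility change mitosis vs G1/S (difference of NP-40 vs SDS log2 ratios): synchronized HeLa Kyoto cells (double thymidine block for G1/S, nocodazole release for mitosis), protein amounts in NP-40 versus SDS lysates quantified by mass spectrometry, three biological replicates.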
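Throughout, for solubility in G1/S (NP-40 vs SDS abundance): HeLa Kyoto cells arrested at G1/S by double thymidine block, proteins quantified by TMT10plex mass spectrometry in mild NP-40 versus SDS extracts, three biological replicates.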
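Throughout, for thermal stability score vs G1/S (z-score of summed log2 fold changes over temperatures): synchronized HeLa Kyoto cells, proteins quantified by TMT10plex mass spectrometry, three biological replicates, mitosis taken 0.5 h after nocodazole release, G1/S directly after double thymidine block.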

| Substance | solubility in G1/S (log2) (HeLa Kyoto [1]) | melting temperature (HeLa Kyoto [2]; cell cycle stage: G1/S) | melting temperature (HeLa Kyoto [2]; cell cycle stage: mitosis) | solubility change mitosis (log2) (HeLa Kyoto [3]) | thermal stability score (HeLa Kyoto [4]; [5]) | thermal stability score (HeLa Kyoto [4]; cell cycle stage: mitosis) |
| --- | --- | --- | --- | --- | --- | --- |
| MKPKLMYQELKVPAEEPANELPMNEIEAWKAAEKKARWVLLVLILAVVGFGALMTQLFLWEYGDLHLFGPNQRPAPCYDPCEAVLVESIPEGLDFPNASTGNPSTSQAWLGLLAGAHSSLDIASFYWTLTNNDTHTQEPSAQQGEEVLRQLQTLAPKGVNVRIAVSKPSGPQPQADLQALLQSGAQVRMVDMQKLTHGVLHTKFWVVDQTHFYLGSANMDWRSLTQVKELGVVMYNCSCLARDLTKIFEAYWFLGQAGSSIPSTWPRFYDTRYNQETPMEICLNGTPALAYLASAPPPLCPSGRTPDLKALLNVVDNARSFIYVAVMNYLPTLEFSHPHRFWPAIDDGLRRATYERGVKVRLLISCWGHSEPSMRAFLLSLAALRDNHTHSDIQVKLFVVPADEAQARIPYARVNHNKYMVTERATYIGTSNWSGNYFTETAGTSLLVTQNGRGGLRSQLEAIFLRDWDSPYSHDLDTSADSVGNACRLL [PLD3] | 0.309 | 55.7 °C | 55.3 °C | -0.0637 | -2.87 | -4.26 |
| MSHLPMKLLRKKIEKRNLKLRQRNLKFQGASNLTLSETQNGDVSEETMGSRKVKKSKQKPMNVGLSETQNGGMSQEAVGNIKVTKSPQKSTVLTNGEAAMQSSNSESKKKKKKKRKMVNDAEPDTKKAKTENKGKSEEESAETTKETENNVEKPDNDEDESEVPSLPLGLTGAFEDTSFASLCNLVNENTLKAIKEMGFTNMTEIQHKSIRPLLEGRDLLAAAKTGSGKTLAFLIPAVELIVKLRFMPRNGTGVLILSPTRELAMQTFGVLKELMTHHVHTYGLIMGGSNRSAEAQKLGNGINIIVATPGRLLDHMQNTPGFMYKNLQCLVIDEADRILDVGFEEELKQIIKLLPTRRQTMLFSATQTRKVEDLARISLKKEPLYVGVDDDKANATVDGLEQGYVVCPSEKRFLLLFTFLKKNRKKKLMVFFSSCMSVKYHYELLNYIDLPVLAIHGKQKQNKRTTTFFQFCNADSGTLLCTDVAARGLDIPEVDWIVQYDPPDDPKEYIHRVGRTARGLNGRGHALLILRPEELGFLRYLKQSKVPLSEFDFSWSKISDIQSQLEKLIEKNYFLHKSAQEAYKSYIRAYDSHSLKQIFNVNNLNLPQVALSFGFKVPPFVDLNVNSNEGKQKKRGGGGGFGYQKTKKVEKSKIFKHISKKSSDSRQFSH [DDX18] | -2.49 | 51 °C | 52 °C | 1.1 | 1.68 | 1.02 |
| FAM91A1 | -0.0537 | 51.9 °C | 51.3 °C | -0.101 | -0.197 | -1.55 |
| MLKSKTFLKKTRAGGVMKIVREHYLRDDIGCGAPGCAACGGAHEGPALEPQPQDPASSVCPQPHYLLPDTNVLLHQIDVLEDPAIRNVIVLQTVLQEVRNRSAPVYKRIRDVTNNQEKHFYTFTNEHHRETYVEQEQGENANDRNDRAIRVAAKWYNEHLKKMSADNQLQVIFITNDRRNKEKAIEEGIPAFTCEEYVKSLTANPELIDRLACLSEEGNEIESGKIIFSEHLPLSKLQQGIKSGTYLQGTFRASRENYLEATVWIHGDNEENKEIILQGLKHLNRAVHEDIVAVELLPKSQWVAPSSVVLHDEGQNEEDVEKEEETERMLKTAVSEKMLKPTGRVVGIIKRNWRPYCGMLSKSDIKESRRHLFTPADKRIPRIRIETRQASTLEGRRIIVAIDGWPRNSRYPNGHFVRNLGDVGEKETETEVLLLEHDVPHQPFSQAVLSFLPKMPWSITEKDMKNREDLRHLCICSVDPPGCTDIDDALHCRELENGNLEVGVHIADVSHFIRPGNALDQESARRGTTVYLCEKRIDMVPELLSSNLCSLKCDVDRLAFSCIWEMNHNAEILKTKFTKSVINSKASLTYAEAQLRIDSANMNDDITTSLRGLNKLAKILKKRRIEKGALTLSSPEVRFHMDSETHDPIDLQTKELRETNSMVEEFMLLANISVAKKIHEEFSEHALLRKHPAPPPSNYEILVKAARSRNLEIKTDTAKSLAESLDQAESPTFPYLNTLLRILATRCMMQAVYFCSGMDNDFHHYGLASPIYTHFTSPIRRYADVIVHRLLAVAIGADCTYPELTDKHKLADICKNLNFRHKMAQYAQRASVAFHTQLFFKSKGIVSEEAYILFVRKNAIVVLIPKYGLEGTVFFEEKDKPNPQLIYDDEIPSLKIEDTVFHVFDKVKVKIMLDSSNLQHQKIRMSLVEPQIPGISIPTDTSNMDLNGPKKKKMKLGK [DIS3] | -0.0366 | 47.9 °C | 49.2 °C | -0.0946 | 1.5 | 3.37 |
| MAATKRKRRGGFAVQAKKPKRNEIDAEPPAKRHATAEEVEEEERDRIPGPVCKGKWKNKERILIFSSRGINFRTRHLMQDLRMLMPHSKADTKMDRKDKLFVINEVCEMKNCNKCIYFEAKKKQDLYMWLSNSPHGPSAKFLVQNIHTLAELKMTGNCLKGSRPLLSFDPAFDELPHYALLKELLIQIFSTPRYHPKSQPFVDHVFTFTILDNRIWFRNFQIIEEDAALVEIGPRFVLNLIKIFQGSFGGPTLYENPHYQSPNMHRRVIRSITAAKYREKQQVKDVQKLRKKEPKTLLPHDPTADVFVTPAEEKPIEIQWVKPEPKVDLKARKKRIYKRQRKMKQRMDSGKTK [BRIX1] | -2.07 | 53.8 °C | 52.9 °C | 1.19 | 0.649 | -2.33 |
| MEAARPPPTAGKFVVVGGGIAGVTCAEQLATHFPSEDILLVTASPVIKAVTNFKQISKILEEFDVEEQSSTMLGKRFPNIKVIESGVKQLKSEEHCIVTEDGNQHVYKKLCLCAGAKPKLICEGNPYVLGIRDTDSAQEFQKQLTKAKRIMIIGNGGIALELVYEIEGCEVIWAIKDKAIGNTFFDAGAAEFLTSKLIAEKSEAKIAHKRTRYTTEGRKKEARSKSKADNVGSALGPDWHEGLNLKGTKEFSHKIHLETMCEVKKIYLQDEFRILKKKSFTFPRDHKSVTADTEMWPVYVELTNEKIYGCDFIVSATGVTPNVEPFLHGNSFDLGEDGGLKVDDHMHTSLPDIYAAGDICTTSWQLSPVWQQMRLWTQARQMGWYAAKCMAAASSGDSIDMDFSFELFAHVTKFFNYKVVLLGKYNAQGLGSDHELMLRCTKGREYIKVVMQNGRMMGAVLIGETDLEETFENLILNQMNLSSYGEDLLDPNIDIEDYFD [PYROXD1] | -0.102 | 49.6 °C | 49.9 °C | -0.158 | -0.128 | -0.037 |
| ATM | -0.339 | 51.7 °C | 51.3 °C | -0.141 | 0.333 | 0.0333 |
| MAAPAVSGLSRQVRCFSTSVVRPFAKLVRPPVQVYGIEGRYATALYSAASKQNKLEQVEKELLRVAQILKEPKVAASVLNPYVKRSIKVKSLNDITAKERFSPLTTNLINLLAENGRLSNTQGVVSAFSTMMSVHRGEVPCTVTSASPLEEATLSELKTVLKSFLSQGQVLKLEAKTDPSILGGMIVRIGEKYVDMSVKTKIQKLGRAMREIV [ATP5O] | 0.365 | 53.4 °C | 53.2 °C | 0.116 | -2.17 | -2.27 |
| MEANWTAFLFQAHEASHHQQQAAQNSLLPLLSSAVEPPDQKPLLPIPITQKPQGAPETLKDAIGIKKEKPKTSFVCTYCSKAFRDSYHLRRHESCHTGIKLVSRPKKTPTTVVPLISTIAGDSSRTSLVSTIAGILSTVTTSSSGTNPSSSASTTAMPVTQSVKKPSKPVKKNHACEMCGKAFRDVYHLNRHKLSHSDEKPFECPICNQRFKRKDRMTYHVRSHEGGITKPYTCSVCGKGFSRPDHLSCHVKHVHSTERPFKCQTCTAAFATKDRLRTHMVRHEGKVSCNICGKLLSAAYITSHLKTHGQSQSINCNTCKQGISKTCMSEETSNQKQQQQQQQQQQQQQQQQQQHVTSWPGKQVETLRLWEEAVKARKKEAANLCQTSTAATTPVTLTTPFSITSSVSSGTMSNPVTVAAAMSMRSPVNVSSAVNITSPMNIGHPVTITSPLSMTSPLTLTTPVNLPTPVTAPVNIAHPVTITSPMNLPTPMTLAAPLNIAMRPVESMPFLPQALPTSPPW [VEZF1] | 0.142 | 55.4 °C | – | 0.0342 | 0.665 | 0.5 |
| MLSLRVPLAPITDPQQLQLSPLKGLSLVDKENTPPALSGTRVLASKTARRIFQEPTEPKTKAAAPGVEDEPLLRENPRRFVIFPIEYHDIWQMYKKAEASFWTAEEVDLSKDIQHWESLKPEERYFISHVLAFFAASDGIVNENLVERFSQEVQITEARCFYGFQIAMENIHSEMYSLLIDTYIKDPKEREFLFNAIETMPCVKKKADWALRWIGDKEATYGERVVAFAAVEGIFFSGSFASIFWLKKRGLMPGLTFSNELISRDEGLHCDFACLMFKHLVHKPSEERVREIIINAVRIEQEFLTEALPVKLIGMNCTLMKQYIEFVADRLMLELGFSKVFRVENPFDFMENISLEGKTNFFEKRVGEYQRMGVMSSPTENSFTLDADF [RRM2] | -0.239 | 56.8 °C | 56.4 °C | 0.14 | -6.63 | -8.23 |

From the supplement of paper PMC5998384
